From doi:10.1101/2025.02.04.636395, “Identification of a RAB32-LRMDA-Commander membrane trafficking complex reveals the molecular mechanism of human oculocutaneous albinism type 7” (bioRxiv, 2025)

Biological target: T1, recombinant LRMDA (human, UniProt A0A087WWI0 1-226)
T1 construct: synthetic gene codon-optimised for S. frugiperda; also called tag-less LRMDA; purified LRMDA; source: Sf21 insect cells (baculovirus), purified (HaloLink resin, TEV cleavage); not shown: HaloTag, N-terminal, cleaved
T1 sequence (looked up): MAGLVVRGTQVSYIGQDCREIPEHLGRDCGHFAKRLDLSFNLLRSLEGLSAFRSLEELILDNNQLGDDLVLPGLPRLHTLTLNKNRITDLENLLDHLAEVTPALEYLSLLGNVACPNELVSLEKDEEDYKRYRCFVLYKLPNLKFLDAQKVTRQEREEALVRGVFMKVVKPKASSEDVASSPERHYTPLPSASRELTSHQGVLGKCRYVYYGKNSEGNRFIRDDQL
Experiment: pull-down; Retriever (0.5 µM, His-tagged VPS29) held on TALON resin; 1 µM LRMDA and/or 1 µM RAB32 added; 50 mM HEPES pH 7.2, 150 mM NaCl, 2 mM β-mercaptoethanol, 0.1% Triton X-100; 45 min at 4 °C; washes with 10 mM imidazole; LRMDA binding slightly increased in the presence of RAB32
Conditions: both partners purified

B1: recombinant RAB32 (natural protein, human, UniProt Q13637 1-225, looked up)
chain: MAGGGAGDPGLGAAAAPAPETREHLFKVLVIGELGVGKTSIIKRYVHQLFSQHYRATIGVDFALKVLNWDSRTLVRLQLWDIAGQERFGNMTRVYYKEAVGAFVVFDISRSSTFEAVLKWKSDLDSKVHLPNGSPIPAVLLANKCDQNKDSSQSPSQVDQFCKEHGFAGWFETSAKDNINIEEAARFLVEKILVNHQSFPNEENDVDKIKLDQETLRAENKSQCC
notes: RAB32, human; synthetic gene codon-optimised for S. frugiperda; also called tag-less RAB32; purified RAB32; source: Sf21 insect cells (baculovirus), purified (Glutathione Sepharose, TEV cleavage); not shown: GST, N-terminal, cleaved
B1: binds.
